Columns and labels:
Wnt signaling = experiment: TCF/LEF-luc reporter assay in Wnt-3A-treated HEK293 cells; type: cell-based; settings: Wnt3A conditioned medium plus 500 nM, 16 hours at 37° C.
Method: HEK293 cells were plated into six-well plates. For each well, 0.1 μg of the TOP-FLASHTCF luciferase construct (Upstate Biotechnology) was cotransfected with 0.8 μg Mesd-expressing vector, 0.8 μg Mesd mutant-expressing vector, or empty vector. A β-galactosidase-expressing vector (Promega, Madison, Wis.) was included as an internal control for transfection efficiency. After 48 hours, cells were lysed and both luciferase and β-galactosidase activities were determined with enzyme assay kits (Promega). The luciferase activity was determined with a luminometer using the Dual Luciferase Assay system (Promega). Luciferase activity was normalized to the activity of the β-galactosidase.
In these experiments, transfected cells were treated without Wnt-3A or with Wnt-3A plus the indicated inhibitors (Mesd and/or Dkk1) for 16 hours at 37° C. Wnt signaling was measured by quantifying the luciferase activity using a live cell imaging system.

LRP6 [1] = target: T1, LRP6 (Homo sapiens, UniProt O75581); experiment: 125I-Mesd cell surface binding to LRP6-transduced HT1080 cells; settings: LRP6-transduced HT1080 cells
T1 construct: expressed in transfected cells; host or cells: human HT1080 cells, retroviral vector pLNCX2
T1 sequence (O75581 20-1613): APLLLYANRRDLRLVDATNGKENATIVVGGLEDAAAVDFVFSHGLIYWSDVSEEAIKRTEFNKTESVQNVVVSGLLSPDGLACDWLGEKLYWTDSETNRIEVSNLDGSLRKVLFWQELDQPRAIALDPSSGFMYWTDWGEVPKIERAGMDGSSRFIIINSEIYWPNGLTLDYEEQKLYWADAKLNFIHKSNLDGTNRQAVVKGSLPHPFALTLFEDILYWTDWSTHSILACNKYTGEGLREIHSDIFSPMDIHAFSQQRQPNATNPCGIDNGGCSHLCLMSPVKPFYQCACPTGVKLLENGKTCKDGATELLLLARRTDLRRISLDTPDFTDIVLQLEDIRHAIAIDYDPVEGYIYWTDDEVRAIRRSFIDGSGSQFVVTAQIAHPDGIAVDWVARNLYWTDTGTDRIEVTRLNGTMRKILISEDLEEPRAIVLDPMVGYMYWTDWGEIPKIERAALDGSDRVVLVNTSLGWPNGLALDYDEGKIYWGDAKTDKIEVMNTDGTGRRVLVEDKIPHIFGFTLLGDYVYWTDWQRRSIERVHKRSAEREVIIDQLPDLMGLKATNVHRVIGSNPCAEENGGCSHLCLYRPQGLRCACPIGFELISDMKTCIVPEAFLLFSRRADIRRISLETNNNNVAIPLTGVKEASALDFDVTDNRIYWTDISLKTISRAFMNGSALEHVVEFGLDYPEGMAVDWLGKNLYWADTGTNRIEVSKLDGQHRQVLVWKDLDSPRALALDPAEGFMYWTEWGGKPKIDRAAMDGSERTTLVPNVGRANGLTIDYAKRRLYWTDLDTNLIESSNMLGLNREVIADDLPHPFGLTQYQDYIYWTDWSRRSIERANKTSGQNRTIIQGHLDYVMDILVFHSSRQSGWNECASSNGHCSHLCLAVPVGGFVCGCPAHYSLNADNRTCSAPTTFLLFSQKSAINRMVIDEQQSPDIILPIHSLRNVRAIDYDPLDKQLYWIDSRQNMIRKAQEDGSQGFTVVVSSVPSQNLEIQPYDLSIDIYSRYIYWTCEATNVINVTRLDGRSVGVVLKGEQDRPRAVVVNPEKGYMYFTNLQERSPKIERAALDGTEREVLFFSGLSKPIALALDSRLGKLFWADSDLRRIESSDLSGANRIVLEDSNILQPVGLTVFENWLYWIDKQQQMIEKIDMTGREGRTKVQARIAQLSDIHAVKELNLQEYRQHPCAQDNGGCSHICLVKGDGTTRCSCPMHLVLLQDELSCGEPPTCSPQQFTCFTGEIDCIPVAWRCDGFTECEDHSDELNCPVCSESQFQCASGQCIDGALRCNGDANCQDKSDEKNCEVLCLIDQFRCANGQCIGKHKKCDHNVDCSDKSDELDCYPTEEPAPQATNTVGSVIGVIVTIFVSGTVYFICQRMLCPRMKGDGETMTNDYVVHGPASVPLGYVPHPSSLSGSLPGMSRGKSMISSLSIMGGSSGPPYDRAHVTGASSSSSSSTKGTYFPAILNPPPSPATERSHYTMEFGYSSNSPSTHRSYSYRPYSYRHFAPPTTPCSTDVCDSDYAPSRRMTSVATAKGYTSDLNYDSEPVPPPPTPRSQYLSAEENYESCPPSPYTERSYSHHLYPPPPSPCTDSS
Method: (§1) To examine whether Mesd binds with high affinity to most members of the LDLR family at the cell surface, we performed cell surface ligand binding experiments with cells stably transduced with LRP6 cDNA. Human HT1080 cells, which express undetectable levels of LRP6, were transduced with a viral vector alone (pLNCX2) or with vector containing LRP6 cDNA (Li, Y., Oncogene 23: 9129-9135, 2004) and used for ^125I-Mesd binding (FIG. 1A). ^125I-Mesd (5 nM) reached maximal binding after 2 hours incubation at 4° C. with LRP6-expressing HT1080 cells (FIG. 1A).
(A) Time course of ^125I-Mesd (5 nM) binding to LRP6-transduced HT1080 cells and the control cells. Assay was carried out for the indicated periods at 4° C. in the absence (total) or presence of 500 nM Mesd (non-specific). (B) Saturation binding of ^125I-Mesd to LRP6-transduced HT1080 cells and the control cells. Assay was carried out at indicated concentrations for 3 hours at 4° C. in the absence (total) or presence (non-specific) of 500 nM Mesd. (C) Scatchard plots of data in B. All values are the average of triple determinations with the s.d. indicated by error bars.
(§2) Cells (2×10^5) were seeded into 12-well dishes 1 day prior to assay. Ligand-binding buffer (minimal Eagle's medium containing 0.6% BSA with a different concentration of radioligand, 0.6 ml/well) was added to cell monolayers, in the absence or the presence of 500 nM unlabeled RAP or 500 nM unlabeled Mesd, followed with incubation for 0-4 hours at 4° C. Thereafter, overlying buffer containing unbound ligand was removed, and cell monolayers were washed and lysed in low-SDS lysis buffer (62.5 mM Tris-HCl pH 6.8, 0.2% SDS, 10% v/glycerol) and counted.
To analyze the Mesd sequences that are required for Mesd to bind to mature LRP6 at the cell surface with high affinity, sequences were compared between mouse Mesd and its homologs from different species. […] We thus generated two truncated Mesd mutants lacking either the N-terminal region, MESD (12-195), or both the N-terminal and C-terminal regions, Mesd (12-155) (FIG. 3A). The ability of these mutants to bind to cell surface LRP6 was then assessed.
In this example, a truncated Mesd mutant containing the last 45 amino acids of C-terminal region was generated (FIG. 3A) and its binding affinity for LRP6 was then analyzed. […] (A) Binding analyses of ^125I-Mesd and its mutant Mesd (150-195) (5 nM) to LRP6-transduced HT1080 cells and control cells. (B) Binding analyses of ^125I-Mesd and its mutant Mesd (150-195) (5 nM) to LRP6-transduced HT1080 cells. Assays were carried out for 3 hours at 4° C. in the absence or presence of 500 nM Mesd or its mutant. Values are the means of triple determinations with the s.d. indicated by error bars.
LRP6-mediated Mesd uptake and degradation was investigated in the experiments illustrated in FIG. 7. (A) LRP6-mediated ^125I-Mesd (5 nM) degradation in LRP6-transduced HT1080 cells and control cells was carried out for 4 hours at 37° C. in the absence or presence of 500 nM Mesd. (B) ^125I-Mesd (5 nM) binding to LRP6-transduced HT1080 cells and the control cells was carried out for 4 hours at 4° C. in the absence or presence of 500 nM Mesd. Values are the means of triple determinations with the s.d. indicated by error bars.

LRP6 [2] = target: T1, LRP6; experiment: Competition for 125I-Mesd binding to cell surface LRP6
Method: as §1, §2
We performed binding of 5 nM ^125I-Mesd (5 nM) to cell surface LRP6 in the presence of various concentrations of excess unlabeled RAP or 500 nM unlabeled Mesd (FIG. 8B). RAP inhibited ^125I-Mesd binding in a dose-dependent manner with ˜60% inhibition achieved with 500 nM RAP, whereas the same concentration of unlabeled Mesd inhibited >90% of ^125I-Mesd binding (FIG. 8B). […] The lower affinity of RAP to cell surface LRP6 may also contribute to its lower efficiency in inhibition of Mesd binding.
In FIG. 8A, binding of ^125I-RAP (5 nM) to LRP6-transduced HT1080 cells and the control cells was carried out for 4 hours at 4° C. in the absence (total) or presence of 500 nM RAP, or 500 nM Mesd. In FIG. 8B, binding of^125I-Mesd (5 nM) to LRP6-transduced HT1080 cells was carried out for 2 hours at 4° C. in the absence (total) or presence of various concentrations of RAP or 500 nM Mesd. (C) LRP6-mediated ^125I-Mesd (5 nM) degradation was carried out for 4 hours at 37° C. in the absence or presence of 500 nM Mesd or 500 nM RAP. Values are the means of triple determinations with the s.d. indicated by error bars.
(§3) In order to investigate the binding of Mesd polypeptide and an Mesd oligopeptide to either LRP5 or LRP6, binding assays were performed using ^125I-Mesd or ^125I-DKK1 (FIG. 10).

LRP5 = LRP5 (Homo sapiens, UniProt O75197); experiment: 125I-DKK1 binding to LRP5; settings: FIG. 10B
Chain of LRP5 (O75197 32-1615): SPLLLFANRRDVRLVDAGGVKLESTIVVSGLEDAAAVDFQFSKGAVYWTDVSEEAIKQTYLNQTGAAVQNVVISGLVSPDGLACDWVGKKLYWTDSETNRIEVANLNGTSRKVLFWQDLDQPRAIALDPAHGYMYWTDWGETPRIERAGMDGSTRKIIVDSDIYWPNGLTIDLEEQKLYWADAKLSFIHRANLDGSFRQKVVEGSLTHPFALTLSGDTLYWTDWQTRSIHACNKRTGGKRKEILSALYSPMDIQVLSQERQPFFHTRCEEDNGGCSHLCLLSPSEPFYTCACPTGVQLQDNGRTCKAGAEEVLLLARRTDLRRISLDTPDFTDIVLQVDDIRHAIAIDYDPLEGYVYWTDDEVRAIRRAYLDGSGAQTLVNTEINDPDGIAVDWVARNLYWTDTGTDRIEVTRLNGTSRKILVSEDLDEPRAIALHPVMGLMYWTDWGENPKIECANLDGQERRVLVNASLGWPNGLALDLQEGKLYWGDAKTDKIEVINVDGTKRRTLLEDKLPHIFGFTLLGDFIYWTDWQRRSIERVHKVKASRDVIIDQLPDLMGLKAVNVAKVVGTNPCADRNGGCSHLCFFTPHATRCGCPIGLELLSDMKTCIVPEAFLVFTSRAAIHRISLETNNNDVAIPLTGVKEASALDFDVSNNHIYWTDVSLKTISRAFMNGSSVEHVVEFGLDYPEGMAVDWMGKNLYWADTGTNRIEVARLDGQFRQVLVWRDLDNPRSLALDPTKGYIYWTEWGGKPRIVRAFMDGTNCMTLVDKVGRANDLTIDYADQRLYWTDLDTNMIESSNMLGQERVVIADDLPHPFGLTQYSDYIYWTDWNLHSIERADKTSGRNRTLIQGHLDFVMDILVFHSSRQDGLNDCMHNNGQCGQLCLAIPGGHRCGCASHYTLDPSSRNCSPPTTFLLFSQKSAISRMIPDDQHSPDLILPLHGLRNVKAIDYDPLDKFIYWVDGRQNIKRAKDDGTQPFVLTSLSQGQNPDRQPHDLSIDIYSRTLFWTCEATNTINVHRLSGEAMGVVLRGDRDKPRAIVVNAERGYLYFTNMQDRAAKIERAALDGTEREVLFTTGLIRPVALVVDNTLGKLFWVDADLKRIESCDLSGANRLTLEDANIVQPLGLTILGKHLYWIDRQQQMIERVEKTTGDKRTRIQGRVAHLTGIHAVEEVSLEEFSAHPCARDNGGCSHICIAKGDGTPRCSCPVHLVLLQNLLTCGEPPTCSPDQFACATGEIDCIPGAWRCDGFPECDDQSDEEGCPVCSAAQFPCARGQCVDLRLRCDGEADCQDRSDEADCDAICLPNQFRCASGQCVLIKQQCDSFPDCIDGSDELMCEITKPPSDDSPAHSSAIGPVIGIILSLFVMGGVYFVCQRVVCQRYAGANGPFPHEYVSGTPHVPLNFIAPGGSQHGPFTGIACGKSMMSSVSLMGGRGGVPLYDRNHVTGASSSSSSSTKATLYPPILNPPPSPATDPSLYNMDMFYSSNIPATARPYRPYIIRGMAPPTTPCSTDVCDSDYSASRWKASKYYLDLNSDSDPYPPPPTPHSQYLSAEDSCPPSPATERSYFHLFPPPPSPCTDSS
Method: as §3

LRP6 [3] = target: T1, LRP6; experiment: LRP6-mediated 125I-Mesd degradation in LRP6-transduced HT1080 cells; type: cell-based; settings: 500 nM unlabeled competitor, 4 hours at 37° C.
Method: Ligand degradation was performed using the methods as described in Li, Y., et al., J. Biol. Chem. 275: 17187-17194, 2000. Briefly, 2×10^5 cells were seeded into 12-well dishes 1 day prior to assay. Pre-warmed assay buffer (minimal Eagle's medium containing 0.6% BSA with radioligand, 0.6 ml/well) was added to cell monolayers in the absence or the presence of unlabeled 500 nM RAP or 500 nM Mesd, followed by incubation for 4 hours at 37° C. Thereafter, the medium overlying the cell monolayers was removed and proteins were precipitated by addition of BSA to 10 mg/ml and trichloroacetic acid to 20%. Degradation of radioligand was defined as the appearance of radioactive fragments in the overlying medium that were soluble in 20% trichloroacetic acid. Kinetic analysis of endocytosis LRP6-transduced HT1080 cells were plated in 12-well plates at a density of 2×10^5 cells/well and used after overnight culture. Cells were rinsed twice in ice-cold assay buffer (minimal Eagle's medium containing 0.6% BSA), and ^125I-anti-HA IgG was added at 1 nM final concentration in cold assay buffer (0.5 ml/well). The binding of ^125I-anti-HA IgG was carried out at 4° C. for 90 minutes with gentle rocking Unbound ^125I-anti-HA IgG was removed by washing cell monolayers three times with cold assay buffer. Ice-cold stop/strip solution (0.2 M acetic acid, pH 2.6, 0.1 M NaCl) was added to one set of plates without warming up and kept on ice. The remaining plates were then placed in a 37° C. water bath and 0.5 ml assay buffer prewarmed to 37° C. was quickly added to cell monolayers to initiate internalization. After each time point, the plates were quickly placed on ice and the assay buffer was replaced with cold stop/strip solution. ^125I-anti-HA IgG that remained on the cell surface was stripped by incubation of cell monolayers with cold stop/strip solution for a total of 20 minutes (0.75 ml for 10 minutes, twice) and counted. Cell monolayers were then solubilized with low-SDS lysis buffer and counted. […] The fraction of internalized ^125I-anti-HA IgG after each time point was calculated and plotted. […]

LRP6 [4] = target: T1, LRP6; experiment: 125I-RAP binding to LRP6-transduced HT1080 cells; settings: 125I-RAP 5 nM, 4 hours at 4° C.
Method: as §2
Receptor-associated protein (RAP) binds with high affinity to LRP, megalin, VLDLR and apoER2, and with a lower affinity to the LDLR (Bu, G., Int. Rev. Cytol. 209, 79-116. 2001). To determine whether RAP and Mesd bind to identical, overlapping, or different sites on the receptors, we performed binding and competition analysis of these two chaperones with HT1080 cells stably expressing LRP6.
In FIG. 8A, binding of ^125I-RAP (5 nM) to LRP6-transduced HT1080 cells and the control cells was carried out for 4 hours at 4° C. in the absence (total) or presence of 500 nM RAP, or 500 nM Mesd. In FIG. 8B, binding of^125I-Mesd (5 nM) to LRP6-transduced HT1080 cells was carried out for 2 hours at 4° C. in the absence (total) or presence of various concentrations of RAP or 500 nM Mesd. […]

LRP6 [5] = target: T1, LRP6; experiment: 125I-DKK1 binding to LRP6; settings: 500 nM unlabeled, 125I-DKK1 5 nM, 3 hours at 4° C.
Method: as §2
RAP is a receptor antagonist for members of the LDLR family, and is able to inhibit the binding of most known ligands of the LDLR family members. DKK1 is an LRP6-specific ligand and antagonist. […] In these experiments, Serum-free conditioned medium was harvested from HEK293 cells transiently transfected with cDNA for human Myc-DKK1 and allowed to bind to LRP6-transduced HT1080 cells (B,C) and control cells (A) in the absence (A,B) or presence (C) of 1 μM Mesd. Cell-surface-bound Myc-tagged DKK proteins were fixed and detected by immunofluorescence staining with anti-Myc antibody. (D) DKK1 binding to cell surface LRP6 is inhibited by Mesd. Binding of 125I-DKK1 (5 nM) to LRP6-transduced HT1080 cells or the control cells was carried out for 3 hours at 4° C. in the absence (total) or presence of 500 nM RAP or 500 nM Mesd. […]

LRP6 [6] = target: T1, LRP6; experiment: LRP6-mediated 125I-DKK1 degradation in LRP6-transduced HT1080 cells; type: cell-based; settings: 500 nM unlabeled, 4 hours at 37° C.
Method: Ligand degradation was performed using the methods as described in Li, Y., et al., J. Biol. Chem. 275: 17187-17194, 2000. Briefly, 2×10^5 cells were seeded into 12-well dishes 1 day prior to assay. Pre-warmed assay buffer (minimal Eagle's medium containing 0.6% BSA with radioligand, 0.6 ml/well) was added to cell monolayers in the absence or the presence of unlabeled 500 nM RAP or 500 nM Mesd, followed by incubation for 4 hours at 37° C. Thereafter, the medium overlying the cell monolayers was removed and proteins were precipitated by addition of BSA to 10 mg/ml and trichloroacetic acid to 20%. […] After each time point, the plates were quickly placed on ice and the assay buffer was replaced with cold stop/strip solution. ^125I-anti-HA IgG that remained on the cell surface was stripped by incubation of cell monolayers with cold stop/strip solution for a total of 20 minutes (0.75 ml for 10 minutes, twice) and counted. Cell monolayers were then solubilized with low-SDS lysis buffer and counted. […] The fraction of internalized ^125I-anti-HA IgG after each time point was calculated and plotted.
RAP is a receptor antagonist for members of the LDLR family, and is able to inhibit the binding of most known ligands of the LDLR family members. […] Cell-surface-bound Myc-tagged DKK proteins were fixed and detected by immunofluorescence staining with anti-Myc antibody. […]

KGGGSKEKNKTKPEKAKKKEGDRKPRASKEDNRAGSR [Mesd WT peptide]
Inhibition of Wnt signaling (luciferase activity) (Wnt signaling): moderately inhibit

QMYPGKGGGSKEKNKTKPEKAKKKEGDPKPRASKEDNRAGSRREDL [Mesd (150-195)]
Binding of truncated Mesd mutants to cell surface LRP6 (LRP6 [1]): necessary and sufficient for LRP6 binding | Inhibition of Wnt signaling (luciferase activity) (Wnt signaling): moderately inhibit

KGGGSKEKNKTKPEKAKKKEGDPKPRASKEDNRAGSR [SEQ ID NO: 20]
Reduction of binding of 125I-Mesd to LRP6 (LRP6 [2]; FIG. 10C, compared with LRP5): even greater reduction | Reduction in binding of 125I-DKK1 to LRP5 (LRP5): small but significant reduction

RAP: Human recombinant 39 kDa receptor-associated protein, expressed in a GST expression vector [reference compound]
Inhibition of 125I-Mesd degradation (LRP6 [3]): only partially | Increase of RAP binding in LRP6 expressing HT1080 cells compared to control cells (LRP6 [4]): ~20% | Inhibition of 125I-Mesd binding to cell surface LRP6 (LRP6 [2]; 500 nM unlabeled competitor, 125I-Mesd 5 nM, 2 hours at 4° C.): ~60% | Effect on increased 125I-DKK1 binding of LRP6-expressing HT1080 cells (LRP6 [5]): not | Effect on increased 125I-DKK1 degradation of LRP6-expressing HT1080 cells (LRP6 [6]): not

B1: Mesd (12-155): Truncated mouse Mesd mutant lacking both the N-terminal and C-terminal regions (protein)
chain: RKKKDIRDYNDADMARLLEQWEKDDDIEEGDLPEHKRPSAPIDFSKLDPGKPESILKMTKKGKTLMMFVTVSGNPTEKETEEITSLWQGSLFNANYDVQRFIVGSDRAIFMLRDGSYAWEIKDFLVSQDRCAEVTLEGQMYPGK
modifications: left off: small tags and cut ends
notes: Truncated mouse Mesd mutant lacking both the N-terminal and C-terminal regions
Binding of truncated Mesd mutants to cell surface LRP6 (LRP6 [1]): completely abolished LRP6 binding

B2: MESD (12-195): Truncated mouse Mesd mutant lacking the N-terminal region (protein)
chain: RKKKDIRDYNDADMARLLEQWEKDDDIEEGDLPEHKRPSAPIDFSKLDPGKPESILKMTKKGKTLMMFVTVSGNPTEKETEEITSLWQGSLFNANYDVQRFIVGSDRAIFMLRDGSYAWEIKDFLVSQDRCAEVTLEGQMYPGKGGGSKEKNKTKPEKAKKKEGDRKPRASKEDNRAGSRREDL
modifications: left off: small tags and cut ends
notes: Truncated mouse Mesd mutant lacking the N-terminal region
Binding of truncated Mesd mutants to cell surface LRP6 (LRP6 [1]): no effect on LRP6 binding

From patent publication US8198236B2, “Methods and compositions for the treatment of cancer” (Washington University, priority 2007, dated 2012)
